Among the data in patent US6468532 (dated 2002) are IC50 values, retold here.

This test addresses recombinant human IL-8, (ser-IL-8)72 (human, UniProt P10145 28-99). Nature of the test: competition radioimmunoassay (unlabeled IL-8/125I-IL-8).

B1: full length 6G4V11N35A IgG1 (antibody, V domains shown)
VH: EVQLVQSGGGLVQPGGSLRLSCAASGYSFSSHYMHWVRQAPGKGLEWVGYIDPSNGETTYNQKFKGRFTLSRDNSKNTAYLQMNSLRAEDTAVYYCARGDYRYNGDWFFDVWGQGTLVTVSS
VL: DIQMTQSPSSLSASVGDRVTITCRSSQSLVHGIGATYLHWYQQKPGKAPKLLIYKVSNRFSGVPSRFSGSGSGTDFTLTISSLQPEDFATYYCSQSTHVPLTFGQGTKVEIKR
As to B1, the 50% inhibitory concentration (IC50) was 0.059 nM.
